Assay results as given in patent US20210347873A1 (SHANGHAI PHARMAEXPLORER, published 2021).

T1: cynomolgus BLyS (full length, arginine 132 mutated to histidine) on CHO-K1 cells (cynomolgus, UniProt Q9Y275 1-285 (human entry))
T1 construct: also called cyno BLyS; CHO-K1 cynoBLyS
T1 chain: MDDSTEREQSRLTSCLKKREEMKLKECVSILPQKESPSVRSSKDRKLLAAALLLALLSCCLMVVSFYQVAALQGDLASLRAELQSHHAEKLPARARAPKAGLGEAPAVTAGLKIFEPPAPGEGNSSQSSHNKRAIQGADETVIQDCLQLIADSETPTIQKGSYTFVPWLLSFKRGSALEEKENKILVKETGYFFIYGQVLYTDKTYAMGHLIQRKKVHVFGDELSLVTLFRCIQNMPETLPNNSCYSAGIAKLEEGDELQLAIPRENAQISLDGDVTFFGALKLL

T2: human APRIL protein (human, UniProt O75888 105-250, limits assumed)
T2 construct: Bought protein; also called recombinant APRIL protein
T2 sequence (looked up): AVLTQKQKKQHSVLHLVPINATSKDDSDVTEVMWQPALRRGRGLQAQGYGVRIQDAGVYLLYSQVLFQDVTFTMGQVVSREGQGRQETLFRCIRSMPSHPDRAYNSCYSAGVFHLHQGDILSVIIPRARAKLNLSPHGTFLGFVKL

B1: L9G7 (antibody, human IgG1, V domains shown)
VH: QIQLVQSGAEVKKPGASVKVSCKASGYTFTSYGISWVRQAPGQGLEWMGWISAYNGNTNYAQKLQGRVTMTTDTSTSTAYMELRSLRSDDTAVYYCARTYYDILTGYYYYGMDVWGQGTTVTVSS
VL: EIVLTQSPGTLSLSPGERATLSCRTSQSVDTYLAWYQQKPGQAPRLLIYDASNRATGIPARFSGSGSGTDFTLTISSLEPEDFAVYYCQQRSNWPLTFGGGTKVEIK
B2: L1D12 (antibody, human IgG1, V domains shown)
VH: QVQLVQSGGGLVQPGGSLRLSCAASGFTVSSNYMSWVRQAPGKGLEWVSVIYSGGSTYYADSVKGRFTISRDNSKNTLYLQMNSLRAEDTAVYYCARGFHDILTGYGMDVWGQGTTVTVSS
VL: SSELTQDPAVSVALGQTVRITCQGDSLRNYYAGWYQQKPGQAPVLVIYGKNNRPSGIPDRFSGSSSGNTASLTITGTQAEDEADYYCSSRDNSGTHLVEFGGGTKLTVL
notes: also called LID12
B3: 97A3C2H4 (antibody, V domains shown)
VH: EVKLVESGGGLVQPGGSLKLSCAASGFTFSTYTMSWVRQTPEKRLEWVAYISYGGGSTSYPDTVKGRFTISRDNAKNTLYLQMSSLKSEDTAIYYCTRHVTVVENSMDYWGQGTSVTVSS
VL: DILLTQSPDILSVSPGERVSFSCRASQSIGTSIHWYQQRTNGSPRLLIKYVSESFSGTPSRFSGSGSGTAFTLTINSVESEDIADYYCQQTHSWPWTFGGGTKLEIK
notes: Mouse hybridoma antibody purified on Protein G
B4: 111D10D6G3 (antibody, V domains shown)
VH: QVQLQQPGAELVKPGASVKMSCKASGYTFTRHWITWVKQRPGQGLEWIGDIFPGSGSINYNEKFKSEATLTVEKSSSTAYMQLSSLTSEDSAVYYCARGDVDVWGTGTTVTVSS
VL: DIQMTQSPSSLSASLGERVSLTCRASQEIRGYLSWLQQKPNGTIKRLIYAASTLDSGVPKRFSATRSGSDFSLTISSLESEDFADYYCLQYASYPFTFGSGTKLEIK
notes: as for B3
B5: 8E7D9C7F5 (antibody, V domains shown)
VH: QVQLQQSGVELARPGASVKLSCKASGYTFTSYGISWVKQRTGQALEWIGEIYPRSGNTYYNEKFKGKATLTADKSSSTAYMELRSLTSEDSAVYFCARSGPITTLVATDYGMDYWGQGTSVTVSS
VL: DIVLTQSPASLAVSLGQRATISCRASKSVSTSSYSYMHWYQQKPGQPPKLLIKFASNLESGVPARFSGSGSGTDFTLNIHPVEEEDAATYYCQHSREFPYTFGGGTKLEIK
notes: Mouse hybridoma monoclonal antibody purified on Protein G
B6: 97A3C2H4 (antibody, V domains shown)
VH: B3 VH
VL: B3 VL
notes: as for B5
B7: 111D10D6G3 (antibody, V domains shown)
VH: B4 VH
VL: B4 VL
notes: as for B5

Target: T1, cynomolgus BLyS (full length, arginine …)
Experiment: flow cytometry (FACS) on CHO-K1 cynoBLyS cells, Alexa 488 secondary antibody
For B1, the “EC50 (read off the curve)” value was roughly 200 pM.
With B2 the “EC50 (read off the curve)” value was roughly 200 pM.
B3 was tested, and the “EC50 (read off the curve)” value was roughly 300 pM.
For B4, the “EC50 (read off the curve)” value was roughly 100 pM.

What follows are binders tested against T3, biotinylated hBLyS-ECD (human, UniProt Q9Y275 134-285, biotinylated with Biotin-X-X-NHS (molar ratio 7:1); sites not stated) (assay: blocking ELISA: biotinylated hBLyS-ECD on coated BAFF R, antibody 0.00128 nM).
T3 construct: also called biotinylated immunogen; BLyS protein
T3 sequence (Q9Y275 134-285): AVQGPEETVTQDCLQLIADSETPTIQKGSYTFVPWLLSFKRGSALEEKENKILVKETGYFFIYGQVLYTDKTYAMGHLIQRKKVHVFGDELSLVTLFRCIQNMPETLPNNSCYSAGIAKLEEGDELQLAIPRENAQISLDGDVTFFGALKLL
Procedure: BLyS antibody blocking the binding of the BLyS protein to its receptor BAFF R was detected by the receptor-ligand binding assay of BLyS protein.
(§1) BAFF R (purchased from R & D Systems) was aliquoted into 96-well ELISA plate at 50 ng per well, and the plate was sealed with plastic film and incubated overnight at 4° C. On the next day the plate was washed four times with the plate washing buffer [PBS buffer containing 0.05% (v/v) Tween20] and added with blocking solution [PBS buffer containing 0.05% (v/v) Tween20 and 1% (w/w) BSA], then blocked for 1 hour at room temperature. The blocking solution was removed and 50 μL per well of the lead antibodies prepared in Embodiment 1 and 2 were added followed by the addition of 50 μL per well of the biotinylated hBLyS-ECD prepared in Embodiment 2. After incubation for 1 hour at 37° C., the plate was washed four times with the plate washing buffer [PBS buffer containing 0.05% (v/v) Tween20]. 100 μL per well of HRP-labeled (horseradish peroxidase) avidin (purchased from Sigma) was added and incubated at 37° C. for 1 hour. The plate was then washed four times with the plate washing buffer [PBS buffer containing 0.05% (v/v) Tween20]. 100 μL of TMB substrate was aliquoted into each well and after incubation for 5 minutes at room temperature, then 100 μL of stop solution (1.0 N HCl) was aliquoted into each well. A₄₅₀ₙₘ values were read with an ELISA plate reader (SpectraMax 384plus, Molecular Device) and the results were shown in FIGS. 9A-9B and Table 15. It was shown in Table 15 that the binding of BLyS protein to its receptor BAFF R could be blocked by the BLyS antibody.
Work on B5 yielded an OD450 nm of 1.62 OD450 nm.
Work on B6 yielded an OD450 nm of 1.34 OD450 nm.
For B7, the OD450 nm was 1.27 OD450 nm.

The binders below were run against T4, human BLyS (full length, arginine 132 mutated to histidine) on CHO-K1 cells (human, UniProt Q9Y275 1-285) (assay: flow cytometry (FACS) on CHO-K1 hBLyS cells, Alexa 488 secondary antibody).
T4 construct: also called hBLyS; CHO-K1 hBLyS
T4 sequence (Q9Y275 other isoform, or with tags, fused parts or gaps limits assumed, change not shown): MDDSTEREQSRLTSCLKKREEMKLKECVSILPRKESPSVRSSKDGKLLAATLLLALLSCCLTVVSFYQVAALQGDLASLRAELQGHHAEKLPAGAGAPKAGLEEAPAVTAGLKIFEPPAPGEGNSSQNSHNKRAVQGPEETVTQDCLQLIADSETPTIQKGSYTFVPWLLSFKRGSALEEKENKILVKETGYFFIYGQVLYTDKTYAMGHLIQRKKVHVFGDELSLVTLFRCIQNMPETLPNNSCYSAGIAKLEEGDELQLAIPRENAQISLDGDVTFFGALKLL
In the case of B1, the “EC50 (read off the curve)” value is reported as roughly 300 pM.
In the case of B2, the “EC50 (read off the curve)” value is reported as roughly 200 pM.
In the case of B3, the “EC50 (read off the curve)” value is reported as roughly 300 pM.
In the case of B4, the “EC50 (read off the curve)” value is reported as roughly 100 pM.

Each binder was assayed against T2, human APRIL protein (assay: ELISA: APRIL coated at 1.0 µg/mL, antibody titrated, HRP secondary antibody).
Procedure: To test whether the BLyS antibody cross-reacted with human APRIL protein, APRIL protein (purchased from R & D Systems) was first diluted to a final concentration of 1.0 μg/mL with PBS, and then 50 μL of which per well was aliquoted into a 96-well ELISA plate, and the plate was subsequently sealed with plastic film and incubated at 4° C. overnight. On the next day the plate was rinsed four times with the plate washing buffer [PBS buffer containing 0.0500 (v/v) Tween20] and a blocking solution [PBS buffer containing 0.05 (v/v) Tween20 and 1 (w/w) BSA] was added, then the protein was blocked at 37° C. for 2 hours. The blocking solution was removed and 100 μL per well of the lead antibodies prepared in Embodiment 1 and 2 were added in. After incubation for 1 hour at 37° C., the plate was rinsed four times with the plate washing buffer [PBS buffer containing 0.05 (v/v) Tween20]. HRP-labeled (horseradish peroxidase) secondary antibody (purchased from Sigma) was added in and incubated at 37° C. for 1 hour. The plate was then rinsed four times with the plate washing buffer [PBS buffer containing 0.050 (v/v) Tween20]. 100 μL of TMB substrate was aliquoted into each well and after incubation at room temperature for 5 minutes, 100 μL of stop solution (1.0 N HCl) was aliquoted into each well. A₄₅₀ₙₘ values were read via an ELISA plate reader (SpectraMax M5e purchased from Molecular Devices) and the results were shown in FIGS. 6A-6B and Table 11. […] As used herein, the IgG control is human IgG and the data in the table is GD number at 450 nm.
B1: no binding (tested: 66.7 nM).
B2: no binding (tested: 66.7 nM).
B3: no binding (tested: 66.7 nM).
B4: no binding (tested: 66.7 nM).

Each binder was assayed against T5, biotinylated hBLyS-ECD (human, UniProt Q9Y275 134-285, biotinylated with Biotin-X-X-NHS (molar ratio 7:1), sites not stated) (assay: receptor-ligand blocking ELISA: BAFF R coated, biotinylated hBLyS-ECD added with titrated antibody, HRP-avidin; blocked partner: BAFF R).
T5 construct: The hBLyS-ECD of Embodiment 1 after biotinylation (Embodiment 2); also called biotinylated immunogen; BLyS protein; not shown: His tag of the pCPC vector
T5 sequence (Q9Y275 134-285): as the sequence (Q9Y275 134-285) above
Procedure: as §1
B1 was tested, and the “IC50 (read off the curve)” value was roughly 700 pM.
In the case of B2, the “IC50 (read off the curve)” value is reported as roughly 1000 pM.
In the case of B3, the “IC50 (read off the curve)” value is reported as roughly 300 pM.
For B4, the “IC50 (read off the curve)” value was roughly 100 pM.
